Results reported in US20200345898.

Target: T1, lysyl oxidase (LOX), recombinant human, in supernatant of doxycycline-induced HEK293 (Flp-In T-REx 293) cells
T1 chain: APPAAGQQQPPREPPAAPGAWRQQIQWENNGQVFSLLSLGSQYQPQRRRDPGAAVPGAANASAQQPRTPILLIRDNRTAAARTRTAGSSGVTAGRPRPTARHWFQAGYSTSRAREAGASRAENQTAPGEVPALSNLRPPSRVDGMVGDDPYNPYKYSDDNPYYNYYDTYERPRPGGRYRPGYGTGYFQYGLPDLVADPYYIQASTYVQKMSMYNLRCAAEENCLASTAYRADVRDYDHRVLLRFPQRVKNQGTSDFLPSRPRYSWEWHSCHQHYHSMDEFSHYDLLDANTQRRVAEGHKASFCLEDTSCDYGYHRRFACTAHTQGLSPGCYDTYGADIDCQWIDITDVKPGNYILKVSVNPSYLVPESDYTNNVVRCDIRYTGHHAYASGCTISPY

B1: bone morphogenetic protein-1 (BMP1), recombinant human, in supernatant of doxycycline-induced HEK293 (Flp-In T-REx 293) cells (protein)
chain: AATSRPERVWPDGVIPFVIGGNFTGSQRAVFRQAMRHWEKHTCVTFLERTDEDSYIVFTYRPCGCCSYVGRRGGGPQAISIGKNCDKFGIVVHELGHVVGFWHEHTRPDRDRHVSIVRENIQPGQEYNFLKMEPQEVESLGETYDFDSIMHYARNTFSRGIFLDTIVPKYEVNGVKPPIGQRTRLSKGDIAQARKLYKCPACGETLQDSTGNFSSPEYPNGYSAHMHCVWRISVTPGEKIILNFTSLDLYRSRLCWYDYVEVRDGFWRKAPLRGRFCGSKLPEPIVSTDSRLWVEFRSSSNWVGKGFFAVYEAICGGDVKKDYGHIQSPNYPDDYRPSKVCIWRIQVSEGFHVGLTFQSFEIERHDSCAYDYLEVRDGHSESSTLIGRYCGYEKPDDIKSTSSRLWLKFVSDGSINKAGFAVNFFKEVDECSRPNRGGCEQRCLNTLGSYKCSCDPGYELAPDKRRCEAACGGFLTKLNGSITSPGWPKEYPPNKNCIWQLVAPTQYRISLQFDFFETEGNDVCKYDFVEVRSGLTADSKLHGKFCGSEKPEVITSQYNNMRVEFKSDNTVSKKGFKAHFFSEKRPALQPPRGRPHQLKFRVQKRNRTPQ
- LOX enzymatic activity, fluorometric assay: the induction of the expression of LOX promoted a strong increase in LOX enzymatic activity, that was further augmented upon incubation with BMP1 supernatants in a time-dependent manner
- LOX immunoreactivity by western blotting in supernatants of fibroblast cultures, one day: the combination of recombinant LOX and BMP1 resulted in complete proteolysis of the pro-LOX
